Measurements as given in US20170320919A1.

B1: Domain 1 (D1) (protein)
chain: AQVSEEEVTIKANLIFANGSTQTAEFKGTFEKATSEAYAYADTLKKDNGEYTVDVADKGYTLNIKFAGKEKTPEEC
B2: D3(N45A)1 (designed binder)
chain: PKEEVTIKANLIYADGKTQTAEFKGTFEEATAEAYRYADLLAKEAGKYTVDVADKGYTLNIKFAGKEKTPEE
B3: D3(N10Q, N45A)1 (designed binder)
chain: PKEEVTIKAQLIYADGKTQTAEFKGTFEEATAEAYRYADLLAKEAGKYTVDVADKGYTLNIKFAGKEKTPEE
B4: D3(N45A, N60Q)1 (designed binder)
chain: PKEEVTIKANLIYADGKTQTAEFKGTFEEATAEAYRYADLLAKEAGKYTVDVADKGYTLQIKFAGKEKTPEE
B5: D3(N10Q, N45A, N60Q)1 (designed binder)
chain: PKEEVTIKAQLIYADGKTQTAEFKGTFEEATAEAYRYADLLAKEAGKYTVDVADKGYTLQIKFAGKEKTPEE
B6: Domain 3 (D3) (protein)
chain: AQVPKEEVTIKANLIYADGKTQTAEFKGTFEEATAEAYRYADLLAKENGKYTVDVADKGYTLNIKFAGKEKTPEEC
B7: D3(Q19A)1 (designed binder)
chain: PKEEVTIKANLIYADGKTATAEFKGTFEEATAEAYRYADLLAKENGKYTVDVADKGYTLNIKFAGKEKTPEE
B8: D3(Q19E)1 (designed binder)
chain: PKEEVTIKANLIYADGKTETAEFKGTFEEATAEAYRYADLLAKENGKYTVDVADKGYTLNIKFAGKEKTPEE
B9: Protein L (protein)
chain: AIHNRAKEETPETPETDSEEEVTIKANLIFANGSTQTAEFKGTFEKATSEAYAYADTLKKDNGEYTVDVADKGYTLNIKFAGKEKTPEEPKEEVTIKANLIYADGKTQTAEFKGTFEEATAEAYRYADALKKDNGEYTVDVADKGYTLNIKFAGKEKTPEEPKEEVTIKANLIYADGKTQTAEFKGTFEEATAEAYRYADLLAKENGKYTVDVADKGYTLNIKFAGKEKTPEEPKEEVTIKANLIYADGKTQTAEFKGTFAEATAEAYRYADLLAKENGKYTADLEDGGYTINIRFAGKKVDEKPEE
B10: Domain 3 tetramer (designed binder)
chain: PKEEVTIKANLIYADGKTQTAEFKGTFEEATAEAYRYADLLAKENGKYTVDVADKGYTLNIKFAGKEKTPEEPKEEVTIKANLIYADGKTQTAEFKGTFEEATAEAYRYADLLAKENGKYTVDVADKGYTLNIKFAGKEKTPEEPKEEVTIKANLIYADGKTQTAEFKGTFEEATAEAYRYADLLAKENGKYTVDVADKGYTLNIKFAGKEKTPEEPKEEVTIKANLIYADGKTQTAEFKGTFEEATAEAYRYADLLAKENGKYTVDVADKGYTLNIKFAGKEKTPEE
B11: D3(N10Q, N45A, N60Q)2 (designed binder)
chain: PKEEVTIKAQLIYADGKTQTAEFKGTFEEATAEAYRYADLLAKEAGKYTVDVADKGYTLQIKFAGKEKTPEEPKEEVTIKAQLIYADGKTQTAEFKGTFEEATAEAYRYADLLAKEAGKYTVDVADKGYTLQIKFAGKEKTPEE
B12: Domain 2 (D2) (protein)
chain: AQVPKEEVTIKANLIYADGKTQTAEFKGTFEEAAAEAYRYADALKKDNGEYTVDVADKGYTLNIKFAGKEKTPEEC
B13: D3(N10Q, N45A, N60Q)2-cys (designed binder)
chain: PKEEVTIKAQLIYADGKTQTAEFKGTFEEATAEAYRYADLLAKEAGKYTVDVADKGYTLQIKFAGKEKTPEEPKEEVTIKAQLIYADGKTQTAEFKGTFEEATAEAYRYADLLAKEAGKYTVDVADKGYTLQIKFAGKEKTPEEC
B14: D3(N10Q, N45A, N60Q)4 (designed binder)
chain: PKEEVTIKAQLIYADGKTQTAEFKGTFEEATAEAYRYADLLAKEAGKYTVDVADKGYTLQIKFAGKEKTPEEPKEEVTIKAQLIYADGKTQTAEFKGTFEEATAEAYRYADLLAKEAGKYTVDVADKGYTLQIKFAGKEKTPEEPKEEVTIKAQLIYADGKTQTAEFKGTFEEATAEAYRYADLLAKEAGKYTVDVADKGYTLQIKFAGKEKTPEEPKEEVTIKAQLIYADGKTQTAEFKGTFEEATAEAYRYADLLAKEAGKYTVDVADKGYTLQIKFAGKEKTPEE
B15: D3(N10Q, N45A, N60Q)4-cys (designed binder)
chain: PKEEVTIKAQLIYADGKTQTAEFKGTFEEATAEAYRYADLLAKEAGKYTVDVADKGYTLQIKFAGKEKTPEEPKEEVTIKAQLIYADGKTQTAEFKGTFEEATAEAYRYADLLAKEAGKYTVDVADKGYTLQIKFAGKEKTPEEPKEEVTIKAQLIYADGKTQTAEFKGTFEEATAEAYRYADLLAKEAGKYTVDVADKGYTLQIKFAGKEKTPEEPKEEVTIKAQLIYADGKTQTAEFKGTFEEATAEAYRYADLLAKEAGKYTVDVADKGYTLQIKFAGKEKTPEEC
B16: D3(N10Q, N45A, N60Q)6 (designed binder)
chain: PKEEVTIKAQLIYADGKTQTAEFKGTFEEATAEAYRYADLLAKEAGKYTVDVADKGYTLQIKFAGKEKTPEEPKEEVTIKAQLIYADGKTQTAEFKGTFEEATAEAYRYADLLAKEAGKYTVDVADKGYTLQIKFAGKEKTPEEPKEEVTIKAQLIYADGKTQTAEFKGTFEEATAEAYRYADLLAKEAGKYTVDVADKGYTLQIKFAGKEKTPEEPKEEVTIKAQLIYADGKTQTAEFKGTFEEATAEAYRYADLLAKEAGKYTVDVADKGYTLQIKFAGKEKTPEEPKEEVTIKAQLIYADGKTQTAEFKGTFEEATAEAYRYADLLAKEAGKYTVDVADKGYTLQIKFAGKEKTPEEPKEEVTIKAQLIYADGKTQTAEFKGTFEEATAEAYRYADLLAKEAGKYTVDVADKGYTLQIKFAGKEKTPEE
B17: D3(N10Q, N45A, N60Q)6-cys (designed binder)
chain: PKEEVTIKAQLIYADGKTQTAEFKGTFEEATAEAYRYADLLAKEAGKYTVDVADKGYTLQIKFAGKEKTPEEPKEEVTIKAQLIYADGKTQTAEFKGTFEEATAEAYRYADLLAKEAGKYTVDVADKGYTLQIKFAGKEKTPEEPKEEVTIKAQLIYADGKTQTAEFKGTFEEATAEAYRYADLLAKEAGKYTVDVADKGYTLQIKFAGKEKTPEEPKEEVTIKAQLIYADGKTQTAEFKGTFEEATAEAYRYADLLAKEAGKYTVDVADKGYTLQIKFAGKEKTPEEPKEEVTIKAQLIYADGKTQTAEFKGTFEEATAEAYRYADLLAKEAGKYTVDVADKGYTLQIKFAGKEKTPEEPKEEVTIKAQLIYADGKTQTAEFKGTFEEATAEAYRYADLLAKEAGKYTVDVADKGYTLQIKFAGKEKTPEEC
B18: Domain 4 (D4) (protein)
chain: AQVPKEEVTIKANLIYADGKTQTAEFKGTFAEATAEAYRYADLLAKENGKYTADLEDGGYTINIRFAGKKVDEKPEEC

Experiments:
[1] = target: human polyclonal IgG (Gammanorm) (human); experiment: SPR (Biacore), retained IgG binding capacity after 96 NaOH cycles against reference Domain 3
[2] = target: human polyclonal IgG (Gammanorm) (human); experiment: SPR (Biacore), ligand amine-coupled to CM5 chip, 1 mg/ml IgG flowed; IgG binding signal left after 96 cycles of 100 mM NaOH, 10 min
[3] = target: human polyclonal IgG (Gammanorm) (human); experiment: SPR (Biacore), retained IgG binding capacity after 96 NaOH cycles against reference Domain 3 (second series)
[4] = target: human polyclonal IgG (Gammanorm) (human); experiment: SPR (Biacore), ligand amine-coupled to CM5 chip, 1 mg/ml IgG flowed; IgG binding signal left after 96 cycles of 100 mM NaOH, 10 min (second series, with the Q19 mutants)
[5] = target: human polyclonal IgG (Gammanorm) (human); experiment: SPR (Biacore), retained IgG binding capacity after 96 NaOH cycles against reference Protein L
[6] = target: human polyclonal IgG (Gammanorm) (human); experiment: SPR (Biacore), retained IgG binding capacity after 100 NaOH cycles against reference Protein L
[7] = target: human polyclonal IgG (Gammanorm) (human); experiment: SPR (Biacore), ligand amine-coupled to CM5 chip, 1 mg/ml IgG flowed; IgG binding signal left after 100 cycles of 100 mM NaOH, 10 min
[8] = target: Purified Dab prepared from heat-treated E. coli supernatant; experiment: column chromatography, ligand coupled to agarose beads at 9.5 mg/ml, 1 mg/ml Dab feed, residence time 4 min
[9] = target: Purified Fab prepared from a papain-digested IgG mAb; experiment: column chromatography, ligand coupled to agarose beads at 9.5 mg/ml, 1 mg/ml Fab feed, residence time 4 min
[10] = target: Purified Dab prepared from heat-treated E. coli supernatant; experiment: column chromatography, ligand coupled to agarose beads at 8.8 mg/ml, 1 mg/ml Dab feed, residence time 4 min
[11] = target: Purified Fab prepared from a papain-digested IgG mAb; experiment: column chromatography, ligand coupled to agarose beads at 8.8 mg/ml, 1 mg/ml Fab feed, residence time 4 min
[12] = target: Purified Dab prepared from heat-treated E. coli supernatant; experiment: column chromatography, ligand coupled to agarose beads at 11.0 mg/ml, 1 mg/ml Dab feed, residence time 4 min
[13] = target: Purified Fab prepared from a papain-digested IgG mAb; experiment: column chromatography, ligand coupled to agarose beads at 11.0 mg/ml, 1 mg/ml Fab feed, residence time 4 min

| Binder | Sample/ref. ratio [1] | Retained capacity after 96 cycles (%) [2] [%] | Sample/ref. ratio [6] | Retained capacity after 100 cycles (%) [7] [%] | further results |
| --- | --- | --- | --- | --- | --- |
| B1 | 0.42 | 13 |  |  |  |
| B2 | 1.42 | 44 |  |  |  |
| B3 | 1.55 | 48 |  |  |  |
| B4 | 1.9 | 59 |  |  |  |
| B5 | 1.9 | 59 |  |  |  |
| B6 | 1 | 31 |  |  | Sample/ref. ratio [3]: 1; Retained capacity after 96 cycles (%) [4]: 28% |
| B7 |  | 28 |  |  | Sample/ref. ratio [3]: 1 |
| B8 |  | 31 |  |  | Sample/ref. ratio [3]: 1.11 |
| B9 |  | 28 | 1 | 23 | Sample/ref. ratio [5]: 1 |
| B10 |  | 38 |  |  | Sample/ref. ratio [5]: 1.36 |
| B11 |  |  | 2.56 | 59 | QB10 Dab (dynamic binding capacity at 10% breakthrough) [8]: 15.4 mg/mL; QB10 Fab (dynamic binding capacity at 10% breakthrough) [9]: 19.3 mg/mL |
| B12 | 0.71 | 22 |  |  |  |
| B13 |  |  | 2.56 | 59 |  |
| B14 |  |  | 2.61 | 60 | QB10 Dab (dynamic binding capacity at 10% breakthrough) [10]: 15.9 mg/mL; QB10 Fab (dynamic binding capacity at 10% breakthrough) [11]: 19.3 mg/mL |
| B15 |  |  | 2.35 | 54 |  |
| B16 |  |  | 2.52 | 58 | QB10 Dab (dynamic binding capacity at 10% breakthrough) [12]: 16.7 mg/mL; QB10 Fab (dynamic binding capacity at 10% breakthrough) [13]: 21.1 mg/mL |
| B17 |  |  | 2.43 | 56 |  |
| B18 | 0.84 | 26 |  |  |  |
